Test results published in publication PMC2323369.

Assays:
Experiment in all cases: not stated; Table 1, GST-RBD, GDP-RhoA, GTP-Cdc42, GTP-Rac1; the caption names competition ELISA and SPR but not which gave these limits
[1] = target: GST-Cdc42 (UniProt P60953)
[2] = target: GST-Rac1 (UniProt P63000)
[3] = target: GST-RhoA (wild type) (UniProt P61586)
Chain of GST-RhoA (wild type) (P61586 whole entry): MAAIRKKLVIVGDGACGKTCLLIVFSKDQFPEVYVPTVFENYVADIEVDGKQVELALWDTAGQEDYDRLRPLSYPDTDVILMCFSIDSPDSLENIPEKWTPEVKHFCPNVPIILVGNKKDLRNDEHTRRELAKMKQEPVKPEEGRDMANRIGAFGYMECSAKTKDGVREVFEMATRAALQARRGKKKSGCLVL

Chain of GST-Cdc42 (P60953 whole entry): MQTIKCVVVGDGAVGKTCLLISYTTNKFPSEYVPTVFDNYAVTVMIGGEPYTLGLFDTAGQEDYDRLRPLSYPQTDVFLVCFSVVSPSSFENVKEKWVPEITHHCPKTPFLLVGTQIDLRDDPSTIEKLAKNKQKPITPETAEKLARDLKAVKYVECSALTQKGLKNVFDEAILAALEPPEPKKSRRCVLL

Kd [1]: > 50 µM
Kd [2]: > 50 µM
Kd [3]: > 50 µM
Substance: GST-RBD (Rho binding domain of Rhotekin fused to GST) (domain or fragment)
